Measured values reported in US20240200091A1, “USE OF PROTOPORPHYRINOGEN OXIDASE” (BEIJING DABEINONG BIOTECHNOLOGY CO., LTD., priority 2021, published 2024).

Assays:
Format in all cases: in vivo
transgenic maize plants [1] = assay: saflufenacil tolerance of transgenic maize plants (spray, grade of pesticide damage); settings: for The grade of pesticide damage/plant: number of plants of grade 0 / The grade of pesticide damage/plant: number of plants of grade 1 / The grade of pesticide damage/plant: number of plants of grade 2 / The grade of pesticide damage/plant: number of plants of grade 3: 7 DAT, 16 maize plants per genotype
transgenic maize plants [2] = assay: oxyfluorfen tolerance of transgenic maize plants (spray, grade of pesticide damage); settings: for The grade of pesticide damage/plant: number of plants of grade 0 / The grade of pesticide damage/plant: number of plants of grade 1 / The grade of pesticide damage/plant: number of plants of grade 2 / The grade of pesticide damage/plant: number of plants of grade 3: 7 DAT, 16 maize plants per genotype
transgenic maize plants [3] = assay: flumioxazin tolerance of transgenic maize plants (spray, grade of pesticide damage); settings: for The grade of pesticide damage/plant: number of plants of grade 0 / The grade of pesticide damage/plant: number of plants of grade 1 / The grade of pesticide damage/plant: number of plants of grade 2 / The grade of pesticide damage/plant: number of plants of grade 3: 7 DAT, 16 maize plants per genotype; for tolerance to flumioxazin: maize, flumioxazin at different concentrations (120 and 240 g ai/ha)
[4] = maize, saflufenacil at four-fold field concentration (100 g ai/ha)
[5] = maize, saflufenacil at two-fold field concentration (50 g ai/ha)
[6] = saflufenacil 50 g ai/ha (2x field concentration)
[7] = saflufenacil 100 g ai/ha (4x field concentration)
[8] = maize, oxyfluorfen at four-fold field concentration (720 g ai/ha)
[9] = maize, oxyfluorfen at two-fold field concentration (360 g ai/ha)
[10] = oxyfluorfen 360 g ai/ha (2x field concentration)
[11] = oxyfluorfen 720 g ai/ha (4x field concentration)
[12] = flumioxazin 120 g ai/ha (2x field concentration)
[13] = flumioxazin 240 g ai/ha (4x field concentration)

Row | Molecule | tolerance to saflufenacil (transgenic maize plants [1]; [4]) | The grade of pesticide damage/plant: number of plants of grade 0 (transgenic maize plants [1]; [6]) | The grade of pesticide damage/plant: number of plants of grade 1 (transgenic maize plants [1]; [6]) | The grade of pesticide damage/plant: number of plants of grade 2 (transgenic maize plants [1]; [6]) | The grade of pesticide damage/plant: number of plants of grade 3 (transgenic maize plants [1]; [6]) | The grade of pesticide damage/plant: number of plants of grade 0 (transgenic maize plants [1]; [7]) | The grade of pesticide damage/plant: number of plants of grade 1 (transgenic maize plants [1]; [7]) | The grade of pesticide damage/plant: number of plants of grade 2 (transgenic maize plants [1]; [7]) | The grade of pesticide damage/plant: number of plants of grade 3 (transgenic maize plants [1]; [7]) | tolerance to oxyfluorfen (transgenic maize plants [2]; [8]) | The grade of pesticide damage/plant: number of plants of grade 0 (transgenic maize plants [2]; [10]) | The grade of pesticide damage/plant: number of plants of grade 1 (transgenic maize plants [2]; [10]) | The grade of pesticide damage/plant: number of plants of grade 2 (transgenic maize plants [2]; [10]) | The grade of pesticide damage/plant: number of plants of grade 3 (transgenic maize plants [2]; [10]) | The grade of pesticide damage/plant: number of plants of grade 0 (transgenic maize plants [2]; [11]) | The grade of pesticide damage/plant: number of plants of grade 1 (transgenic maize plants [2]; [11]) | The grade of pesticide damage/plant: number of plants of grade 2 (transgenic maize plants [2]; [11]) | The grade of pesticide damage/plant: number of plants of grade 3 (transgenic maize plants [2]; [11]) | The grade of pesticide damage/plant: number of plants of grade 0 (transgenic maize plants [3]; [12]) | The grade of pesticide damage/plant: number of plants of grade 1 (transgenic maize plants [3]; [12]) | further results
1 | PPO12B: nucleotide sequence encoding protoporphyrinogen oxidase PPO12, maize common codon usage bias (nucleic acid, The nucleotide sequence of PPO12B) DNA: ATGAAGAAGGCGCTGTTTTTATATTCAAGTCGTGAGGGCCAAACAAAAAAAATATTGAACTACATTGAAGGTGAATTGTCCAATTTTGAGTGCGAGCTCGTCGACCTCCACACGCTGGACGCCATTGATTTCTCGGTCTATGACAGGGTTTTGATTGGAGCAAGCATACGGTACGGCCACCTAAACAAGAAACTTTATCAATTCATTGAGAATAACCGCCAGCAGCTGGAAAATCATACCAAGGTGGCCTTCTTCTGTGTAAATCTTACTGCAAGGAAGGAAGATCAAGGCAAGGACACCCCTGAAGGGAGCGTCTACATCCAGAAGTTCCTGAAAAAATCTCCCTGGCAGCCAAAACTTATCGGGGTGTTCGCTGGCGCGCTCTACTACCCGAGATATGGTTTTTTTGACAAGATGATGATCAAGCTCATCATGACGCTGACAGATGGAGAGACTGATACTACAAAGGAGGTGGAGTACACCAACTGGAAGAAAGTTTCCCTCTTCGCCAAGAAGTTTGCTGAGCTTTGA | high-resistant tolerance | 16 | 0 | 0 | 0 | 16 | 0 | 0 | 0 | high-resistant tolerance | 16 | 0 | 0 | 0 | 16 | 0 | 0 | 0 | 16 | 0 | tolerance to saflufenacil (transgenic maize plants [1]; [5]): high-resistant tolerance; tolerance to oxyfluorfen (transgenic maize plants [2]; [9]): high-resistant tolerance; The grade of pesticide damage/plant: number of plants of grade 2 (transgenic maize plants [3]; [12]): 0; The grade of pesticide damage/plant: number of plants of grade 3 (transgenic maize plants [3]; [12]): 0; The grade of pesticide damage/plant: number of plants of grade 0 (transgenic maize plants [3]; [13]): 16; The grade of pesticide damage/plant: number of plants of grade 1 (transgenic maize plants [3]; [13]): 0; The grade of pesticide damage/plant: number of plants of grade 2 (transgenic maize plants [3]; [13]): 0; The grade of pesticide damage/plant: number of plants of grade 3 (transgenic maize plants [3]; [13]): 0; tolerance to flumioxazin (transgenic maize plants [3]): high-resistant tolerance
2 | PPO6B: nucleotide sequence encoding protoporphyrinogen oxidase PPO6, maize common codon usage bias (nucleic acid, The nucleotide sequence of PPO6B) DNA: ATGTCAAGTCCCAACGGGAAGTACCTTATGCTGTATAGCACGACTGATGGACACACCAAGACAATAATGGACACCATGGCGAAGCACATTATGGAAGAGGCCAAAGTTCAGTGCGACGTCGTAGACATGAGGGACGGGGACAAGTATGAACTTGCGGCTTACGAGAAGGTCATGCTCGGCGCCTCCATAAGGTACGGCTTCTTCAGCCGCACCTTGCATACATATACTACCCATCATGTTGATGAGCTTAACTCCATGCCATCGGCATTCTTTGGTGTTAATTTAACGGCGCGGAAAACTAGCAAGAACACAGCCATGACCAATGCTTATACACGGAAATTCCTGGATCAATCTATGTGGGTGCCACAGCTGAGTGGGGTCTTCGCCGGTGCACTCTGGTACCCCCGCTACAACTTTTTTGATCGAGTGATGATCCAGTTCATCATGAAGGTGACGGGCGGCGAAACAAATACTACAAAAGAGATCGTCTACACGGACTGGGATGCAGTGCACAAGTTTGCTACTGACTTCGTCCAACTCCCTGCCACCGCCATTCCAAGATCTAAACCTGCTACGTCGGTGCCGCCGGCGTCAGTAGCAAACTATGATAATGGTGCTCGTGTTGCGCTGGTGGTGGTTGGAATTTCTGCAGCCATCATCTTCGGCCGCAGGCTAATTTTGGCCAAGAGATTTTGA | high-resistant tolerance | 16 | 0 | 0 | 0 | 16 | 0 | 0 | 0 | high-resistant tolerance | 16 | 0 | 0 | 0 | 16 | 0 | 0 | 0 | 16 | 0 | tolerance to saflufenacil (transgenic maize plants [1]; [5]): high-resistant tolerance; tolerance to oxyfluorfen (transgenic maize plants [2]; [9]): high-resistant tolerance; The grade of pesticide damage/plant: number of plants of grade 2 (transgenic maize plants [3]; [12]): 0; The grade of pesticide damage/plant: number of plants of grade 3 (transgenic maize plants [3]; [12]): 0; The grade of pesticide damage/plant: number of plants of grade 0 (transgenic maize plants [3]; [13]): 16; The grade of pesticide damage/plant: number of plants of grade 1 (transgenic maize plants [3]; [13]): 0; The grade of pesticide damage/plant: number of plants of grade 2 (transgenic maize plants [3]; [13]): 0; The grade of pesticide damage/plant: number of plants of grade 3 (transgenic maize plants [3]; [13]): 0; tolerance to flumioxazin (transgenic maize plants [3]): high-resistant tolerance
3 | PPO-APB: nucleotide sequence encoding Arsenophonus protoporphyrinogen oxidase PPO-AP (SEQ ID NO:65), maize common codon usage bias (nucleic acid, The nucleotide sequence of PPO-APB) DNA: ATGTCCTACCTCTTGCTGTATTCGGGGAAAAATGGTCAAACCAAGAAGATCATCCTCAAAATAACTGAATATCTTCGTAAAGAAGGAAAGCAGTGCGACGTCAGAGATCTTAACATGGACAAGAATTTTAATTTAAGTGTGTACCAGAAGGTTCTTGTCGGAGCTTCAATTCGCTACGGCCACTTCAACCCCGCCGTGCTGAACTTCGCGCAGAATCATCAAAAAGAGCTGAACACAATTCAATCTGCCTTCTTTGGCGTCAACCTGATGGCGAGGAAGCAAGGGAAGGATACACCAGAAACCAATGTTTATGTTCGGAAGTTTTTGGCTAAAATTCCATGGCAGCCGACGATCACCAACGTATTTAGCGGTGCACTCAGATATCCTCAGTACAAGTGGCTGGATAGGATAATGATCCAGTTCATCATGAAGATTACTGGCGGCGAGACAAATAAGAACAAGGAGGTGGAGTACACGGACTGGGAGAAAGTGGAATACTTCGCCCGCGAGTTCAATGCACTAAAATGA | basically no tolerance | 0 | 0 | 7 | 9 | 0 | 0 | 1 | 15 | no tolerance | 0 | 0 | 8 | 8 | 0 | 0 | 0 | 16 | 0 | 0 | share of the plants that exhibited no tolerance (transgenic maize plants [1]; [5]): about 56; share of the plants that exhibited no tolerance (transgenic maize plants [2]; [9]): about 50%; The grade of pesticide damage/plant: number of plants of grade 2 (transgenic maize plants [3]; [12]): 3; The grade of pesticide damage/plant: number of plants of grade 3 (transgenic maize plants [3]; [12]): 13; The grade of pesticide damage/plant: number of plants of grade 0 (transgenic maize plants [3]; [13]): 0; The grade of pesticide damage/plant: number of plants of grade 1 (transgenic maize plants [3]; [13]): 0; The grade of pesticide damage/plant: number of plants of grade 2 (transgenic maize plants [3]; [13]): 0; The grade of pesticide damage/plant: number of plants of grade 3 (transgenic maize plants [3]; [13]): 16; tolerance to flumioxazin (transgenic maize plants [3]): basically no tolerance
